Measured values from US20240254246A1 (PROMETHEUS BIOSCIENCES, published 2024).
Residue numbers refer to the chain shown, from its start. Read-outs that look alike come from different tables or passages of the source. One block for each binder: values may come before it.

Assays:
[1] = molecular target: T1, human CD30L expressed on cells (human, UniProt P32971 1-234); assay: cell-based or functional assay
T1 sequence (looked up): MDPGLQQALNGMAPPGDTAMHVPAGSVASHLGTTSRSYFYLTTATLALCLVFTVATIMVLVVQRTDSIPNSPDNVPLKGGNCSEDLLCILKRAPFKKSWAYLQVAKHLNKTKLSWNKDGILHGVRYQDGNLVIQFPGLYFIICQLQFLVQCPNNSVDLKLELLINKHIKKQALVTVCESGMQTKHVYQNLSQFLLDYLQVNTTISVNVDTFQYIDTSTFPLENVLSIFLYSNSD

[2] = molecular target: T2, cynomolgus CD30L expressed on HEK293 cells (cynomolgus, UniProt A0A7N9CVX7 1-234); assay: cell-based or functional assay
T2 sequence: T1 sequence (looked up) with A19T, M20T, G32E, L41F, V75I, K78R, I204V, I227V

[3] = molecular target: T1, human CD30L expressed on cells; assay: flow cytometry, B16-huCD30L cells
Description: Anti-CD30L antibody binding to a CD30L target was determined by flow cytometry, using B16 cells transfected to express human CD30L (compared to non-transfected B16), and using HEK293 cells transfected to express cynomolgus CD30L (compared to non-transfected HEK293). […] Cell surface bound antibodies were detected using a fluorescently labeled anti-human-IgG or anti-mouse IgG, depending on the Fc portion of the antibodies. After incubation with the secondary antibody, the cells were washed, fixed in a paraformaldehyde solution, and analyzed by flow cytometry to detect antibody binding.

[4] = molecular target: T1, human CD30L expressed on cells; assay: flow cytometry, blocking of huCD30 binding to B16-huCD30L cells
[5] = molecular target: T3, recombinant human CD30L protein (human, UniProt P32971 63-234); assay: ELISA, huCD30L, 1/50 dil
T3 construct: also called rhCD30L; huCD30L (ELISA)
T3 sequence (looked up): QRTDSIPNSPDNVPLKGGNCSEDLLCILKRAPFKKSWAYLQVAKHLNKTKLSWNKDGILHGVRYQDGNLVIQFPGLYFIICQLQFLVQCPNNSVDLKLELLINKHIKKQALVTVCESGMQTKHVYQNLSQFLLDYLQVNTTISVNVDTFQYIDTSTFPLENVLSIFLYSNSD

[6] = molecular target: T3, recombinant human CD30L protein; assay: ELISA, huCD30L, 1/500 dil
[7] = molecular target: T3, recombinant human CD30L protein; assay: ELISA, huCD30L, 1/5000 dil
[8] = molecular target: T4, cynomolgus CD30L expressed on cells (cynomolgus, UniProt A0A7N9CVX7 1-234); assay: flow cytometry, cyCD30L cells, 1/50 dil
T4 construct: whole, on cells; also called cyCD30L; HEK293-cyCD30L
T4 sequence: T1 sequence (looked up) with A19T, M20T, G32E, L41F, V75I, K78R, I204V, I227V

[9] = molecular target: T5, human CD30L expressed on cells (human, UniProt P32971 1-234); assay: flow cytometry, huCD30L cells, 1/50 dil
T5 construct: also called huCD30L; B16-huCD30L
T5 sequence: T1 sequence (looked up)

[10] = molecular target: T6, recombinant cynomolgus CD30L protein (cynomolgus, UniProt A0A7N9CVX7 63-234); assay: ELISA, 1/50 dil
T6 construct: Recombinant protein used in ELISA; also called cyCD30L
T6 sequence: T3 sequence (looked up) with V13I, K16R, I142V, I165V

[11] = molecular target: T6, recombinant cynomolgus CD30L protein; assay: ELISA, 1/500 dil
[12] = molecular target: T6, recombinant cynomolgus CD30L protein; assay: ELISA, 1/5000 dil
[13] = molecular target: T7, recombinant human CD30L protein (human, UniProt P32971 63-234); assay: ELISA, CD30 competitor, undil
T7 construct: Recombinant protein used in ELISA; also called huCD30L
T7 sequence (looked up): T3 sequence (looked up)

[14] = molecular target: T7, recombinant human CD30L protein; assay: ELISA, CD30 competitor, 1/10 dil
[15] = molecular target: T7, recombinant human CD30L protein; assay: ELISA, CD30 competitor, 1/100 dil
[16] = molecular target: T7, recombinant human CD30L protein; assay: ELISA, CD30 competitor, 1/1000 dil
[17] = molecular target: T8, human CD30L expressed on B16 cells (human, UniProt P32971 1-234); assay: cell-based or functional assay
T8 sequence (looked up): T1 sequence (looked up)

[18] = molecular target: T9, cynomolgus CD30L expressed on HEK293 cells (cynomolgus, UniProt A0A7N9CVX7 1-234); assay: cell-based or functional assay; remark: listed apart in the source
T9 sequence: T1 sequence (looked up) with A19T, M20T, G32E, L41F, V75I, K78R, I204V, I227V

[19] = molecular target: T8, human CD30L expressed on B16 cells; assay: flow cytometry, binding to B16-rhCD30L cells
[20] = molecular target: T9, cynomolgus CD30L expressed on HEK293 …; assay: flow cytometry, binding to HEK293-cyCD30L cells
[21] = molecular target: T8, human CD30L expressed on B16 cells; assay: flow cytometry, blocking of CD30-Fc on B16-huCD30L cells; competitor CD30-Fc
[22] = molecular target: T9, cynomolgus CD30L expressed on HEK293 …; assay: flow cytometry, blocking of CD30-Fc on HEK293-cyCD30L cells; competitor CD30-Fc

B1: Clone 2, Mouse IgG (antibody, V domains shown)
VH: EVQLVESGGGLVQPGRSLRLSCAASGFNFDDYAMHWVRQAPGKGLEWVSGISWRSGNIGYAGSVKGRFTISRDNAKNSLYLQMNSLRPEDSALYYCAKDKGIGFNWNYEGFDYWGQGTLVTVSS
VL: DIQMTQSPSSLSASVGDRVTITCRASQGISNHLAWFQQKPGKAPKSLIYAASSLQSGVPSKFSGSGSGTDFTLTISSLQPEDFATYYCQQYVTYPLTFGGGTKVEIK
notes: Mouse IgG format
Inhibition of IL-8 release in a dual cell assay (B16-huCD30L cells + K299 cells) IC50 [1]: 1.2 nM | Inhibition of IL-8 release in a dual cell assay (HEK293-cyCD30L cells + K299 cells) IC50 [2]: 0.46 nM | EC50 [3]: 1.21 nM | IC50 [4]: 1.84 nM

B3: Clone 2, Human IgG1 (antibody, V domains shown)
VH: B1 VH
VL: B1 VL
notes: Human IgG1 format
Inhibition of IL-8 release in a dual cell assay (B16-huCD30L cells + K299 cells) IC50 [1]: 0.6 nM | Inhibition of IL-8 release in a dual cell assay (HEK293-cyCD30L cells + K299 cells) IC50 [2]: 0.24 nM | EC50 [3]: 0.81 nM | IC50 [4]: 0.86 nM

B5: Clone 4 (antibody, V domains shown)
VH: QVQLVESGGGVVQPGRSLRLSCAASGFPFSSYGMHWVRQAPGKGLEWVTFIWFDGNNKDYADSVKGRFSVSRDNSKNTLYLQMNSLRADDTAVYYCARNGVYYGSGAYVDYWGQGTLVTVSS
VL: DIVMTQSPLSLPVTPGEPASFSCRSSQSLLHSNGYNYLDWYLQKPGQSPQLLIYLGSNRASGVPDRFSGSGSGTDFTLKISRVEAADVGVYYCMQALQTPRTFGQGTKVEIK
notes: Hybridoma screening sample; also called CLONE_4 (parental)
Elisa Binding (OD) [10]: 2.58 OD | Elisa Binding (OD) [11]: 2.38 OD | Elisa Binding (OD) [12]: 0.583 OD | % inhibition [13]: 98% | % inhibition [14]: 96% | % inhibition [15]: 10% | % inhibition [16]: 0%

B7: Clone 1, Mouse IgG (antibody, V domains shown)
VH: QVQLQESGPGLVKPSETLSLTCTVSGGSISGYYWSWIRQPPVKGLEWIGYIFYSGYTKYNPSLKSRVTISVDTSKNQFSLKLSSVTAADTAVYYCARDRWDFDYWGQGALVTVSS
VL: AIQMTQSPSYLSASVGDRVTIACRASQGIRNNLGWYQQKPGKAPKLLIYAESSLQSGVPSRFSGSGSGTDFTLTISSLQPEDFATYYCLQDFNYPYTFGQGTKLEIK
notes: Mouse IgG format
Inhibition of IL-8 release in a dual cell assay (B16-huCD30L cells + K299 cells) IC50 [1]: 1.99 nM | Inhibition of IL-8 release in a dual cell assay (HEK293-cyCD30L cells + K299 cells) IC50 [2]: 0.55 nM | EC50 [3]: 1.95 nM | IC50 [4]: 3.06 nM

B10: Clone 3 (antibody, V domains shown)
VH: B7 VH
VL: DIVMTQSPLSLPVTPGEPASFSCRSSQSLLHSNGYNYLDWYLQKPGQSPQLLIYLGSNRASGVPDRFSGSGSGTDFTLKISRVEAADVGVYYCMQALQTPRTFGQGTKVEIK
notes: Hybridoma screening sample; also called CLONE_3 (parental)
Elisa Binding (OD) [10]: 3.2 OD | Elisa Binding (OD) [11]: 2.35 OD | Elisa Binding (OD) [12]: 0.552 OD | % inhibition [13]: 98% | % inhibition [14]: 95% | % inhibition [15]: 17% | % inhibition [16]: 3%

B11: Clone 1, Human IgG1 (antibody, V domains shown)
VH: B7 VH
VL: B7 VL
notes: Human IgG1 format
Inhibition of IL-8 release in a dual cell assay (B16-huCD30L cells + K299 cells) IC50 [1]: 1.1 nM | Inhibition of IL-8 release in a dual cell assay (HEK293-cyCD30L cells + K299 cells) IC50 [2]: 0.22 nM | EC50 [3]: 1.41 nM | IC50 [4]: 1.35 nM

Results, then the binder that gave them:

OD [5]: 2.15 OD | OD [6]: 1.71 OD | OD [7]: 0.565 OD | MFI [8]: 57.6 MFI | MFI [9]: 280 MFI
B2: anti-CD30L clone 2 (antibody, V domains shown)
VH: B1 VH
VL: B1 VL
notes: From mice with humanized immunoglobulin locus; elsewhere tested as mouse IgG and human IgG1; also called clone 2 parental

OD [5]: 3.08 OD | OD [6]: 2.65 OD | OD [7]: 0.68 OD | MFI [8]: 67.8 MFI | MFI [9]: 151 MFI
B4: anti-CD30L clone 4 (antibody, V domains shown)
VH: B5 VH
VL: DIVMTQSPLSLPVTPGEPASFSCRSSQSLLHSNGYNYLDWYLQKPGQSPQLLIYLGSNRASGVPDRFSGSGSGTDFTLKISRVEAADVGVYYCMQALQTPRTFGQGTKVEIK

Inhibition of IL-8 release in a dual cell assay (B16-huCD30L cells + K299 cells) IC50 [17]: 1.61 nM | Inhibition of IL-8 release in a dual cell assay (HEK293-cyCD30L cells + K299 cells) IC50 [18]: 0.79 nM | EC50 [19]: 1.12 nM | EC50 [20]: 0.56 nM | IC50 [21]: 1.84 nM | IC50 [22]: 0.73 nM
B6: anti-CD30L Reference 1 antibody (antibody, human IgG1, lambda, V domains shown)
VH: QVQLQESGPGLVKPSETLSLTCTVSGGSISSYIWSWIRQPAGKGLEWIGRIYASGNTNYNPSLKSRVTISVDTSKNQFSLKLSSMTAADTAVYYCARDYRVAGTYYYYYGLDVWGQGTTVTVSS
VL: QSALTQPASVSGSPGQSITISCTGTSSDVGVYDYVSWYQQHPGKAPKLMIYEVSNRPSGVSNRFSGSKSGNTASLTISGLQTEDEADYYCSSYTSRSTWVFGGGTKLTVLG

OD [5]: 3.59 OD | OD [6]: 3.02 OD | OD [7]: 1.28 OD | MFI [8]: 77.3 MFI | MFI [9]: 208 MFI
B8: anti-CD30L clone 1 (antibody, V domains shown)
VH: B7 VH
VL: B7 VL
notes: From mice with humanized immunoglobulin locus; elsewhere tested as mouse IgG and human IgG1; also called clone 1 parental

OD [5]: 3.5 OD | OD [6]: 2.54 OD | OD [7]: 0.662 OD | MFI [8]: 72.4 MFI | MFI [9]: 153 MFI
B9: anti-CD30L clone 3 (antibody, V domains shown)
VH: B7 VH
VL: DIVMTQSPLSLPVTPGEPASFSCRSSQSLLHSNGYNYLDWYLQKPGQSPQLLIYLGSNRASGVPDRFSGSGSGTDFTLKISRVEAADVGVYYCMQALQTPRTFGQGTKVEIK
